Results: US20250171534A1 (D2M BIOTHERAPEUTICS, published 2025)

What was measured:
[1] = target: T1, LILRB1-ECD-HIS (SinoBiological Cat #: 16014-H02H) (human, UniProt Q8NHL6 24-461); experiment: BLI (Gator), RB1-ECD-his
T1 construct: Bought protein; also called monomeric antigen LILRB1-ECD-HIS; not shown: His tag

[2] = target: T2, LILRB2-ECD-HIS (SinoBiological Cat #: 14132-H02H) (human, UniProt Q8N423 22-460); experiment: BLI (Gator), RB2-ECD-his
T2 construct: Bought protein; also called monomeric antigen LILRB2-ECD-HIS; not shown: His tag
T2 sequence (Q8N423 other isoform, or with tags, fused parts or gaps H02H H02H): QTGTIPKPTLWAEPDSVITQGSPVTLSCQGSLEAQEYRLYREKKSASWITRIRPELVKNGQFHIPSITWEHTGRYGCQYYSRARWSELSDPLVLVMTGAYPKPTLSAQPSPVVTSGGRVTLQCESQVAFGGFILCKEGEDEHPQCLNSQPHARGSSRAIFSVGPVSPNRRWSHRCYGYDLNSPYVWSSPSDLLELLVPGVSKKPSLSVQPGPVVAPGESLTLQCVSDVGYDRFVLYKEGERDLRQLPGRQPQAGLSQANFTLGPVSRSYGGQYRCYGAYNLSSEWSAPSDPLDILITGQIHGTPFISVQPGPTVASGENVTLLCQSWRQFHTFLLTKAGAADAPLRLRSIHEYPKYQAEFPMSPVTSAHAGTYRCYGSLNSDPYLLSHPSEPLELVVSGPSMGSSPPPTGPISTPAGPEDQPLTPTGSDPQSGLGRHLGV

[3] = target: T1, LILRB1-ECD-HIS (SinoBiological Cat #: …); experiment: SPR (Carterra), LILRB1-ECD-his
[4] = target: T2, LILRB2-ECD-HIS (SinoBiological Cat #: …); experiment: SPR (Carterra), LILRB2-ECD-his
[5] = target: T3, human LILRB1 expressed on cells (human, UniProt Q8NHL6 24-650); experiment: flow cytometry, Jurkat-LILRB1 cells
T3 construct: In 293T cells it was expressed from pCMV3-LILRB1-GFP; also called CHO-LILRB1; Jurkat-LILRB1
T3 sequence (Q8NHL6 other isoform, or with tags, fused parts or gaps limits assumed): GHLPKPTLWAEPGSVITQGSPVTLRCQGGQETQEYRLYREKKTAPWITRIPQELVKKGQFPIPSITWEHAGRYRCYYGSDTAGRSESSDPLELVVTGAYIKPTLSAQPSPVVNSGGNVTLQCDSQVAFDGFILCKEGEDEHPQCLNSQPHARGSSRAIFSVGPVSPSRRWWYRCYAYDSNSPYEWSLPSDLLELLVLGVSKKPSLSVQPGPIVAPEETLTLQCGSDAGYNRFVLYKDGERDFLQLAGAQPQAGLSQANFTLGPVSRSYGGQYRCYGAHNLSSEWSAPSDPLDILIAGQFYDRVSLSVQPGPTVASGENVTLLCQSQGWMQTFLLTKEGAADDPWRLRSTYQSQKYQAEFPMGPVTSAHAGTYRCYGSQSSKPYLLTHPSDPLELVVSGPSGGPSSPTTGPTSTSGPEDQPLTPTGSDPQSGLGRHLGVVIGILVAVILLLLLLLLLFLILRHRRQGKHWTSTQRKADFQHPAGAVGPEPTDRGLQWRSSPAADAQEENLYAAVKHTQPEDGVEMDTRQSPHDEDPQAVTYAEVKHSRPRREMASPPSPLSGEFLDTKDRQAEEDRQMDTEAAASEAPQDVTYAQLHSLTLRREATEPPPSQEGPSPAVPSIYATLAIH

[6] = target: T4, human LILRB2 expressed on cells (human, UniProt Q8N423 22-597); experiment: flow cytometry, Jurkat-LILRB2 cells
T4 construct: In 293T cells it was expressed from pCMV3-LILRB2-GFP; also called CHO-LILRB2; Jurkat-LILRB2
T4 sequence (Q8N423 other isoform, or with tags, fused parts or gaps limits assumed): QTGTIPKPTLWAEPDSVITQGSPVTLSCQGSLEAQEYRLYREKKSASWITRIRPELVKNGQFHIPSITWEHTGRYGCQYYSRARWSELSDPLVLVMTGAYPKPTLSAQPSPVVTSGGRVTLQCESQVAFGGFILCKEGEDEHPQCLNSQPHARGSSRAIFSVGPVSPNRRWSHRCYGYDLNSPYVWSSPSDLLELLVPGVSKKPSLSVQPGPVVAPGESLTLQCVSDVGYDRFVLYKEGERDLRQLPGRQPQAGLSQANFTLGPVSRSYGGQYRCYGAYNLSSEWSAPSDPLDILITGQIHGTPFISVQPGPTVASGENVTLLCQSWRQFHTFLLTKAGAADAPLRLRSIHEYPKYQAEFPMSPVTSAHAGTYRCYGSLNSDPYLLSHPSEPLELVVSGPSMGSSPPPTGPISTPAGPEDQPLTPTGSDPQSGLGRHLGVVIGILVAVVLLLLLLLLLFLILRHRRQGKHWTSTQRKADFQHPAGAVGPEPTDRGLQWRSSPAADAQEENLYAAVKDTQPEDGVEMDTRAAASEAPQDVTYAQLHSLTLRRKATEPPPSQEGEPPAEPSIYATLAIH

[7] = target: T5, LILRA1 expressed on cells (human, UniProt O75019 17-489); experiment: flow cytometry on CHO-LILRA1 cells, non-linear fit of the curves of FIG. 26E
T5 construct: whole, on cells; GFP-tagged; also called human LILRA1; CHO-LILRA1
T5 sequence (O75019 17-489): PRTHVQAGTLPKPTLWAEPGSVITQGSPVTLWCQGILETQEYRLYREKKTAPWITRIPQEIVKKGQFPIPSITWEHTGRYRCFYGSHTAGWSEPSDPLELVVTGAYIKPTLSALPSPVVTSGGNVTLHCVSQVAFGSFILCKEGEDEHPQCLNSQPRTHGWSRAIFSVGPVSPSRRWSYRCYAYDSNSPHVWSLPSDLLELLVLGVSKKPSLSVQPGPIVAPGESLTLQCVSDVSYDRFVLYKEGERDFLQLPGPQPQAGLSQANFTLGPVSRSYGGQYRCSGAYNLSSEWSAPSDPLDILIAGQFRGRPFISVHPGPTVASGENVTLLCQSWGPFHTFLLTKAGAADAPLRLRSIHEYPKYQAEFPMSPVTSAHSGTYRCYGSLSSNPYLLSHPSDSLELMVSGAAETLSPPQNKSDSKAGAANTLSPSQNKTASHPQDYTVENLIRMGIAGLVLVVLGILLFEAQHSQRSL

[8] = target: T3, human LILRB1 expressed on cells; experiment: flow cytometry on CHO-LILRB1 cells, non-linear fit of the curves of FIG. 26A
[9] = target: T4, human LILRB2 expressed on cells; experiment: flow cytometry on CHO-LILRB2 cells, non-linear fit of the curves of FIG. 26B
[10] = target: T3, human LILRB1 expressed on cells; experiment: flow cytometry, Jurkat-LILRB1 cells; blocked ligand: APC HLA-G trimer tetramer
[11] = target: T4, human LILRB2 expressed on cells; experiment: flow cytometry, Jurkat-LILRB2 cells; blocked ligand: APC HLA-G monomer tetramer
[12] = target: T3, human LILRB1 expressed on cells; experiment: flow cytometry on CHO-LILRB1 cells (CHO-RB1), titrated antibody, labelled anti-human Fc, gMFI
[13] = target: T4, human LILRB2 expressed on cells; experiment: flow cytometry on CHO-LILRB2 cells (CHO-RB2), titrated antibody, labelled anti-human Fc, gMFI
[14] = target: T6, LILRB3 expressed on cells (human, UniProt O75022 24-631); experiment: flow cytometry on CHO-LILRB3 cells (CHO-RB3), titrated antibody, labelled anti-human Fc, gMFI
T6 construct: whole, on cells; Expressed with a GFP tag from the bought plasmid; also called human LILRB3; CHO-LILRB3

[15] = target: T5, LILRA1 expressed on cells; experiment: flow cytometry on CHO-LILRA1 cells (CHO-RA1), titrated antibody, labelled anti-human Fc, gMFI
[16] = target: T7, LILRA6 expressed on cells (human, UniProt Q6PI73 24-481); experiment: flow cytometry on CHO-LILRA6 cells (CHO-RA6), titrated antibody, labelled anti-human Fc, gMFI
T7 construct: whole, on cells; GFP-tagged; also called human LILRA6; CHO-LILRA6
T7 sequence (Q6PI73 24-481): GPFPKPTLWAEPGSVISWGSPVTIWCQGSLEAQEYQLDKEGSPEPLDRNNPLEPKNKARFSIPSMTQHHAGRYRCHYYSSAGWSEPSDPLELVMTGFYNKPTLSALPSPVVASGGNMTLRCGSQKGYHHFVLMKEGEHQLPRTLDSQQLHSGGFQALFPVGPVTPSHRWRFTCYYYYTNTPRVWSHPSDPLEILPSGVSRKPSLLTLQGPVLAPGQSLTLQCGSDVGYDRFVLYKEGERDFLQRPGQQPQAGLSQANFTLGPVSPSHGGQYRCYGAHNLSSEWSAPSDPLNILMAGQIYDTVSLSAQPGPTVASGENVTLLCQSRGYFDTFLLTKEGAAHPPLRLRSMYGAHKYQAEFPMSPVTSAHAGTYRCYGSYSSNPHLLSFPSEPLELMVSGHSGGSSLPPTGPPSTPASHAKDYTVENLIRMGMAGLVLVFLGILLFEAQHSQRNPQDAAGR

[17] = target: T8, LILRB2-ECD-His (SinoBiological, Cat #: 14132-H08H-B) (Homo sapiens (Human), UniProt Q8N423 22-460, biotinylated (site not stated)); experiment: competition ELISA: plate coated with MAG, biotinylated LILRB2 pre-incubated with titrated antibody, streptavidin-HRP and TMB, OD450
T8 sequence (Q8N423 other isoform, or with tags, fused parts or gaps H08H H08H): as the sequence (Q8N423 other isoform, or with tags, fused parts or gaps H02H H02H) above

[18] = target: T8, LILRB2-ECD-His (SinoBiological, Cat #: …); experiment: competition ELISA: plate coated with CD1C, biotinylated LILRB2 pre-incubated with titrated antibody, streptavidin-HRP and TMB, OD450
[19] = target: T8, LILRB2-ECD-His (SinoBiological, Cat #: …); experiment: competition ELISA: plate coated with CD1D, biotinylated LILRB2 pre-incubated with titrated antibody, streptavidin-HRP and TMB, OD450
[20] = target: T8, LILRB2-ECD-His (SinoBiological, Cat #: …); experiment: competition ELISA: plate coated with SEMA4A, biotinylated LILRB2 pre-incubated with titrated antibody, streptavidin-HRP and TMB, OD450
[21] = target: T8, LILRB2-ECD-His (SinoBiological, Cat #: …); experiment: competition ELISA: plate coated with ANGPTL2, biotinylated LILRB2 pre-incubated with titrated antibody, streptavidin-HRP and TMB, OD450
[22] = target: T8, LILRB2-ECD-His (SinoBiological, Cat #: …); experiment: competition ELISA: plate coated with ANGPTL5, biotinylated LILRB2 pre-incubated with titrated antibody, streptavidin-HRP and TMB, OD450
[23] = target: T3, human LILRB1 expressed on cells; experiment: flow cytometry on CHO-LILRB1 cells (CHO-RB1); D2M002-126 as stock or kept in PBS or human plasma at 37 °C for 1, 2 or 3 weeks; labelled anti-human Fc, gMFI
[24] = target: T4, human LILRB2 expressed on cells; experiment: flow cytometry on CHO-LILRB2 cells (CHO-RB2); D2M002-126 as stock or kept in PBS or human plasma at 37 °C for 1, 2 or 3 weeks; labelled anti-human Fc, gMFI
[25] = target: T3, human LILRB1 expressed on cells; experiment: flow cytometry, CHO-LILRB1 cells
[26] = target: T4, human LILRB2 expressed on cells; experiment: flow cytometry, CHO-LILRB2 cells
[27] = target: T4, human LILRB2 expressed on cells; experiment: flow cytometry, CHO-LILRB2 cells; remark: listed apart in the source
[28] = target: T1, LILRB1-ECD-HIS (SinoBiological Cat #: …); experiment: SPR (Carterra LSA), antibody captured, antigen injected;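 also: kd obtained from kinetic analysis of antibody binding to the antigen, with association and dissociation phases fitted in the instrument software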
[29] = target: T2, LILRB2-ECD-HIS (SinoBiological Cat #: …); experiment: as above

T1 sequence (Q8NHL6 other isoform, or with tags, fused parts or gaps H02H H02H): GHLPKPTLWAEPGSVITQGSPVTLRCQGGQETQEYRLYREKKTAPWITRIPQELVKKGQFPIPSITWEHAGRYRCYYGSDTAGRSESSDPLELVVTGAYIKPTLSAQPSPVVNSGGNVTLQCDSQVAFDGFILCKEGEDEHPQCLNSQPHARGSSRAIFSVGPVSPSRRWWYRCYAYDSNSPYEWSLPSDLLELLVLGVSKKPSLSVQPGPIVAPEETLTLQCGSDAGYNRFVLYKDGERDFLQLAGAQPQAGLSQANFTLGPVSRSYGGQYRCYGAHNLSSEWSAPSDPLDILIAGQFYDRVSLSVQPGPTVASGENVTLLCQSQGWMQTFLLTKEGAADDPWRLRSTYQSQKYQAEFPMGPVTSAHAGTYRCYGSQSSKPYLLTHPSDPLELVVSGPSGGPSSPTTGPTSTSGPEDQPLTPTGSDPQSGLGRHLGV

B1: D2M002-126 (antibody, V domains shown)
VH: QVQLVQSGAEVKKPGASVKVSCKASGYTFTSYWIEWVRQAPGQGLEWIGEILPGDESTNYNAKFKGRVTFTTDTSTSTAYMELRSLRSDDTAVYYCARSGAGGYDSGAFAYWGQGTLVTVSS
VL: AIQLTQSPSSLSASVGDRVTITCRASESVDTYGNSFMHWYQQKPGKAPKLLVYRTSNLESGVPSRFSGSGSGTDFTLTISSLQPEDFATYYCQQSNEDPWTFGGGTKVEIK
notes: Humanized and optimized variant of D2M002-026
Kd [1]: 0.366 nM | Kd [2]: 0.0482 nM | Kd [3]: 0.515 nM | koff [3]: 2.17e-05 s⁻¹ | kon [3]: 42100 M⁻¹ s⁻¹ | Kd [4]: 0.119 nM | koff [4]: 5.89e-05 s⁻¹ | kon [4]: 496000 M⁻¹ s⁻¹ | EC50 [5]: 1.45 µg/mL | EC50 [6]: 0.081 µg/mL | EC50 [7]: 0.102 µg/mL | MaxMFI [7]: 27500 | EC50 [8]: 0.388 µg/mL | MaxMFI [8]: 113000 | EC50 [9]: 0.206 µg/mL | MaxMFI [9]: 33600 | IC50 [10]: 0.304 µg/mL | IC50 [11]: 0.015 µg/mL | EC50 (read off the curve) [12]: ~0.4 µg/mL | EC50 (read off the curve) [13]: ~0.2 µg/mL | binding result [14]: no binding (tested: about 30 µg/mL (log10 about 1.5)) | EC50 (read off the curve) [15]: ~0.1 µg/mL | binding result [16]: no binding (tested: about 30 µg/mL (log10 about 1.5)) | IC50 (read off the curve) [17]: ~1 µg/mL | IC50 (read off the curve) [18]: ~2 µg/mL | IC50 (read off the curve) [19]: ~2 µg/mL | IC50 (read off the curve) [20]: ~1 µg/mL | IC50 (read off the curve) [21]: ~1 µg/mL | IC50 (read off the curve) [22]: ~1 µg/mL | EC50 (read off the curve) [23]: ~0.3 µg/mL | EC50 (read off the curve) [24]: ~0.1 µg/mL

B2: D2M002-044 (antibody, human IgG1, V domains shown)
VH: EVQLQQSGAELVRPGALVKLSCKGSGFNIKDYYMHWVRQRPEQGLEWIGWIDPENGNTVYAPKFQGKASITSDTSSNIAYLQFSSLTSEDTAVYYCARSRDHGAMDYWGQGTSVTVSS
VL: DVQITQSPAIMSASPGEKVTLTCSASSSVSSSNLYWYQQKPGSSPKLWIYSTSNLASGVPARFSGSGFGTSYALTISSMEAEDAASYFCHQWSSYPYTFGGGTKLEIK
notes: Hit; also called clone #44
binding result [25]: no binding (tested: 5 µg/mL) | EC50 (read off the curve) [26]: ~0.06 µg/mL | EC50 [27]: 0.061 µg/mL | gMFI (max) [27]: 22900 | Kd [28]: 1000 nM | Kd [29]: 4.85 nM
